Common to all, as to test: SPR, steady state, Fab over captured mutant
The target in one experiment is T1, shCD131 I368A (human, UniProt P32927 17-438).
T1 construct: C-terminal 6xHis
T1 sequence: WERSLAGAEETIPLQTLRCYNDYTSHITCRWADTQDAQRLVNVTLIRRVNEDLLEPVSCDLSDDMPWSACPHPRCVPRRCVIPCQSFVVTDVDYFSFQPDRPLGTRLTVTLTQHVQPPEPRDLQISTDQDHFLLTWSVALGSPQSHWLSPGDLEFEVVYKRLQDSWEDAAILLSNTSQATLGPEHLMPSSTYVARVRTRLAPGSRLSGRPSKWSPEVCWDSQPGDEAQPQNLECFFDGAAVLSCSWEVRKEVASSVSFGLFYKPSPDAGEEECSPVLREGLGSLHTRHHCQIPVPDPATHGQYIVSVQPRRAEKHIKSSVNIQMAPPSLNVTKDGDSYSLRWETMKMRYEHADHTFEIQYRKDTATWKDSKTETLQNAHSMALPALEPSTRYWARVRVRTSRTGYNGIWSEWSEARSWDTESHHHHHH
Here is the method:
(§1) For some analysis purified Fab was injected over each flow cell for 3 minutes and dissociation was monitored for a further 10 minutes. Regeneration of the surface was performed after each cycle with a 40 second injection of 25 mM glycine, pH 2.0. The analysis was performed with Fabs at several concentrations between 100 and 0.31 nM, with each concentration analyzed twice and in random order. The analysis was performed at a flow rate of 30 μl/min in HBS-EP buffer (10 mM Hepes, 150 mM NaCl, 3 mM EDTA, 0.005% Tween 20, pH 7.4) at 37° C. Responses from spots 2 and 4 of each flow cell, (in which shβc was not captured, but otherwise treated identically), were subtracted from those of spots 1 and 5 respectively to produce reference subtracted data. Reference subtracted responses from a blank injection comprising buffer alone were subtracted from the resultant sensorgrams to produce double referenced data suitable for kinetic analysis. Double-referenced sensorgrams were fitted using non-linear regression to a model describing 1:1 kinetics, including a term for mass transport limitation. The Rₘₐₓ value was fitted locally to account for slight deviations in the level of sCD131 captured, with association rate (kₐ), dissociation rate (kd) and equilibrium dissociation constant (KD) fitted globally.
(§2) Mapping of the shCD131 epitope was performed by measurement of the affinity of Fabs for various alanine point mutants of shCD131 essentially as described above, with the following exceptions. Each shCD131 mutant was captured for 120 seconds at concentrations between 1 and 5 μg/ml. For kinetic analysis, purified recombinant Fabs were injected for 2 minutes, and dissociation was monitored for a further 2 minutes. […] Fab concentrations ranged from 16 μM to 3.9 nM in two-fold dilutions. The assays were conducted at 25° C. All sensorgrams were reference subtracted as described above. For determination of steady-state affinity (KD only), the response at the end of the binding phase was used to fit the data to a single-site binding model. Kinetic parameters were determined as described above.

The target of another experiment is T2, shCD131 H367A (human, UniProt P32927 17-438).
T2 construct: C-terminal 6xHis
T2 sequence: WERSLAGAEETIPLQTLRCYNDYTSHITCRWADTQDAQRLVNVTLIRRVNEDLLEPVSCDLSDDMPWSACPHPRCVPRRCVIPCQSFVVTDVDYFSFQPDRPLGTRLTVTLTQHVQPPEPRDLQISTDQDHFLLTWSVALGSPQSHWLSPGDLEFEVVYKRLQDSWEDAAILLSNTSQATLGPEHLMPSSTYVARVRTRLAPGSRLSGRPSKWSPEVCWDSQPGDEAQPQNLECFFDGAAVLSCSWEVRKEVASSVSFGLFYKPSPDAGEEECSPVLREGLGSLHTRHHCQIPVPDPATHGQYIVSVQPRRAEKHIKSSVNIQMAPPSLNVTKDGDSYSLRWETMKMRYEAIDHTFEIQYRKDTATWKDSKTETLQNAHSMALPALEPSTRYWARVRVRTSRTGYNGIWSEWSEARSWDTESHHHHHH
The protocol: as §1, §2

The next experiment concerns the target T3, shCD131 G423A (human, UniProt P32927 17-438).
T3 construct: C-terminal 6xHis
T3 sequence: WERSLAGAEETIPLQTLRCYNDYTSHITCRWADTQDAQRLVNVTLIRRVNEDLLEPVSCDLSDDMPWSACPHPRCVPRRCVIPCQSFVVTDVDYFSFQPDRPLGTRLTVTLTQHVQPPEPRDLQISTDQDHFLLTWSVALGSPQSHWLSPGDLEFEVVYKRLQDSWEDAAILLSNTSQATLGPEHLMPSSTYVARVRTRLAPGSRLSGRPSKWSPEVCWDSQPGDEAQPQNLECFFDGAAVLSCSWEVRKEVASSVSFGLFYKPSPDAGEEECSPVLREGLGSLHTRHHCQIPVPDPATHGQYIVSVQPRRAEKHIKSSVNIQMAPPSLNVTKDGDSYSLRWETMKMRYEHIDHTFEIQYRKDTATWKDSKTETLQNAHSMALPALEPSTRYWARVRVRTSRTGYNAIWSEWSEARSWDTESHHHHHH
The protocol:
as §1, §2

The target in a further experiment is T4, shCD131 N37A (human, UniProt P32927 17-438).
T4 construct: C-terminal 6xHis
T4 sequence: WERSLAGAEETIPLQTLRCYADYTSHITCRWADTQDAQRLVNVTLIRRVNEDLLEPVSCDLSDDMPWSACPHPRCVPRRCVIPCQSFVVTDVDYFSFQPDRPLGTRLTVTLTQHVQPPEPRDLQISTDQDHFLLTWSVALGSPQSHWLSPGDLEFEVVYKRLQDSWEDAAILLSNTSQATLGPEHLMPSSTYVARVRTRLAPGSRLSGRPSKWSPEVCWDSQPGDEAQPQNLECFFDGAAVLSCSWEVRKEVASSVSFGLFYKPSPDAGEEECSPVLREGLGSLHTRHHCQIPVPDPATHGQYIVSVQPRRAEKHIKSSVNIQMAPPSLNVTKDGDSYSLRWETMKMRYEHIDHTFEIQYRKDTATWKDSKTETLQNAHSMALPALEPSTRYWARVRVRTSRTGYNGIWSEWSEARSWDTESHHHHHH
Here is the method: as §1, §2

Several values for one entry are separate records, joined by “and”; a condition that tells them apart may be missing. Identical values can stand only once.

B1: 9A2 Fab (Fab, V domains shown)
VH: EVQLLESGGGLVQPGGSLRLSCAASGFTFSHYHMLWVRQAPGKGLEWVSSIRSSGGFTYYADSVKGRFTISRDNSKNTLYLQMNSLRAEDTAVYYCARFYDSFFDIWGQGTMVTVSS
VL: DIQMTQSPSSVSASVGDRVTITCRASQGISSWLAWYQQKPGKAPKLLIYAASSLQSGVPSRFSGSGSGTDFTLTISSLQPEDFATYYCQQANSFPITFGQGTRLEIKR
notes: also called recombinant Fab of 9A2
Regarding B1, the dissociation constant (Kd) with shCD131 I368A was 4.77 µM; with shCD131 H367A, 10.3 µM and 10.8 µM; in the experiment with shCD131 G423A, 0.197 µM; in the experiment with shCD131 N37A it was 0.62 µM.

The record behind these values is patent US20190062438A1 (CSL, published 2019).
